According to patent publication US20210253727A1 (CORVUS PHARMACEUTICALS, published 2021):

T1: CD73 (as used in the affinity measurements) (UniProt P21589 27-549, limits assumed)
T1 construct: also called CD73 antigen; 5'-nucleotidase
T1 sequence (looked up): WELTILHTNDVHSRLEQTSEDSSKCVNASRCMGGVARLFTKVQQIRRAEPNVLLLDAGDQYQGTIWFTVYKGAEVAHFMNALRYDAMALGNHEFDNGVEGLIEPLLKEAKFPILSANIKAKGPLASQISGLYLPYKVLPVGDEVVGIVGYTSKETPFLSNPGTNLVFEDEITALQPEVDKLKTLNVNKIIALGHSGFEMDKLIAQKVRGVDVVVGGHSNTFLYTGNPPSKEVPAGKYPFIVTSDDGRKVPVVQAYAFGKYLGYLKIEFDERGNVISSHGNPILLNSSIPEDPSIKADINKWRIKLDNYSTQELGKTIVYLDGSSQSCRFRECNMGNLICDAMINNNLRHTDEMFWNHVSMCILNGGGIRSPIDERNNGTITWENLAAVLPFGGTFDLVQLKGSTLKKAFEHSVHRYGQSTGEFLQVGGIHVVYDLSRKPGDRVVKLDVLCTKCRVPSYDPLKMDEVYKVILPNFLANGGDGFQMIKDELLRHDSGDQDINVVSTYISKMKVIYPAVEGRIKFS


Target: T1, CD73 (as used in the affinity …)
Assay: affinity measurement, method not stated

Binder	Kd [nM]
CPX-003 (humanized 1E9 antibody, BAP094-hum03) (antibody, human IgG1, V domains shown) VH: QVQLVQSGAEVKKPGASVKVSCKASGYTFTSYWITWVRQARGQRLEWIGDIYPGSGNTNYNEKFKTRVTITADKSTSTAYMELSSLRSEDTAVYYCAKEGGLTTEDYALDYWGQGTLVTVSS VL: EIVLTQSPDFQSVTPKEKVTITCRASKNVSTSGYSYMHWYQQKPGKAPKLLIYLASNLESGIPPRFSGSGYGTDFTLTINNIESEDAAYYFCQHSRELPFTFGQGTKVEI	19.5
CPX-006 (humanized 1E9 antibody; BAP094-hum06-HC with BAP094-hum07-LC) (antibody, V domains shown, also called anti-CD73 (CPX-006)) VH: QVQLVQSGAEVEKPGASVKVSCKASGYTFTSYWITWVRQAPGQGLEWMGDIYPGSGNTNYNEKFKTRVTITADKSTSTAYMELSSLRSEDTAVYYCAKEGGLTTEDYALDYWGQGTLVTVSS VL: EIVLTQSPATLSLSPGERATLSCRASKNVSTSGYSYMHWYQQKPGQAPRLLIYLASNLESGIPPRFSGSGYGTDFTLTINNIESEDAAYYFCQHSRELPFTFGQGTKVEIK	7.1
CPX-005 (humanized 1E9 antibody, BAP094-hum06) (antibody, human IgG1, V domains shown) VH: QVQLVQSGAEVEKPGASVKVSCKASGYTFTSYWITWVRQAPGQGLEWMGDIYPGSGNTNYNEKFKTRVTITADKSTSTAYMELSSLRSEDTAVYYCAKEGGLTTEDYALDYWGQGTLVTVSS VL: AIQLTQSPSSLSASVGDRVTITCRASKNVSTSGYSYMHWYQQKPGQAPRLLIYLASNLESGVPSRFSGSGSGTDFTFTISSLEAEDAATYYCQHSRELPFTFGQGTKVEIK	6.9
CPX-007 (humanized 1E9 antibody; BAP094-hum03-HC with BAP094-hum07-LC) (antibody, human IgG1, V domains shown) VH: QVQLVQSGAEVKKPGASVKVSCKASGYTFTSYWITWVRQARGQRLEWIGDIYPGSGNTNYNEKFKTRVTITADKSTSTAYMELSSLRSEDTAVYYCAKEGGLTTEDYALDYWGQGTLVTVSS VL: EIVLTQSPATLSLSPGERATLSCRASKNVSTSGYSYMHWYQQKPGQAPRLLIYLASNLESGIPPRFSGSGYGTDFTLTINNIESEDAAYYFCQHSRELPFTFGQGTKVEIK	15.9
CPX-002 (chimeric 1E9 antibody, clone BAP094-01) (antibody, human IgG1, V domains shown, also called chimeric antibody) VH: QVQLQQPGAELVKPGASVKMSCKASGYTFTSYWITWVKQRPGQGLEWIGDIYPGSGNTNYNEKFKTKATLTVDTSSSTAYMQLSSLTSEDSAVYYCAKEGGLTTEDYALDYWGQGTLVTVSS VL: DIVLTQSPASLAVSLGQRATISCRASKNVSTSGYSYMHWYQQKPGQPPKLLIYLASNLESGVPTRFSGSGSGTDFTLNIHPVEEEDAATYYCQHSRELPFTFGSGTKLEIK	9.4
CPX-004 (humanized 1E9 antibody, BAP094-hum05) (antibody, human IgG1, V domains shown) VH: EVQLVQSGAEVKKPGATVKISCKVSGYTFTSYWITWIRQPPGKGLEWIGDIYPGSGNTNYNEKFKTRVTISADKSISTAYLQWSSLKASDTAMYYCAKEGGLTTEDYALDYWGQGTLVTVSS VL: DVVMTQSPLSLPVTLGQPASISCRASKNVSTSGYSYMHWYQQKPGQAPRLLIYLASNLESGIPPRFSGSGYGTDFTLTINNIESEDAAYYFCQHSRELPFTFGQGTKVEIK	17.8
